This note sets out measurements from the supplement of paper PMC10567573.

B1: ZNF8 (parent)
chain: VHVIGVEEPSVGASMLFDIREST
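Further: lentivirally expressed fusions sorted by FACS into six bins by GFP to DsRed ratio, PSI derived from sequencing read proportions per bin multiplied by bin number.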

In the data set the parent is B1. Kind of data set: protein stability index of a GFP-peptide fusion (GPS, HEK-293T) (PSI 1-6); higher = more stable. Conditions: c terminus: native.
Regarding KHVIGVEEPSVGASMLFDIREST [V1K], the protein stability index is 3.52. For LHVIGVEEPSVGASMLFDIREST [V1L] the value was 1.79; for VHVITVEEPSVGASMLFDIREST [G5T], 2.24.

Consider VHVIVVEEPSVGASMLFDIREST [G5V], for which the protein stability index worked out at 2.71. On to VHVIAVEEPSVGASMLFDIREST [G5A], for which the protein stability index stood at 1.63. As to VHVILVEEPSVGASMLFDIREST [G5L], the protein stability index amounted to 3.04.

With VHVIWVEEPSVGASMLFDIREST [G5W], the protein stability index is 2.37. The figure for VHVIDVEEPSVGASMLFDIREST [G5D] is 3.11; for VHVIEVEEPSVGASMLFDIREST [G5E] it is 2.42; for VHVIMVEEPSVGASMLFDIREST [G5M] it is 2.84. For VHVIKVEEPSVGASMLFDIREST [G5K] the value was 1.95.

On to VHVIFVEEPSVGASMLFDIREST [G5F], for which the protein stability index is 2.47. The figure for VHVIHVEEPSVGASMLFDIREST [G5H] is 1.6; for VHVIPVEEPSVGASMLFDIREST [G5P] it is 2.36.

As for VHVIRVEEPSVGASMLFDIREST [G5R], the protein stability index worked out at 1.61. In the case of VHVIIVEEPSVGASMLFDIREST [G5I], the protein stability index was 2.51. As to VHVISVEEPSVGASMLFDIREST [G5S], the protein stability index was 1.56. For VHVICVEEPSVGASMLFDIREST [G5C] the value was 2.82; for VHVIYVEEPSVGASMLFDIREST [G5Y], 2.35. In the case of VHVIQVEEPSVGASMLFDIREST [G5Q], the protein stability index came out at 1.66. For VHVINVEEPSVGASMLFDIREST [G5N], the protein stability index stood at 2.18. The figure for VHTIGVEEPSVGASMLFDIREST [V3T] is 3.08; for VHCIGVEEPSVGASMLFDIREST [V3C] it is 2.74; for VHSIGVEEPSVGASMLFDIREST [V3S] it is 3.42.

On to VHAIGVEEPSVGASMLFDIREST [V3A], for which the protein stability index was determined as 3.18. Regarding VHMIGVEEPSVGASMLFDIREST [V3M], the protein stability index came to 2.84.

Turning to VHWIGVEEPSVGASMLFDIREST [V3W], the protein stability index amounted to 1.47. With VHYIGVEEPSVGASMLFDIREST [V3Y], the protein stability index stood at 1.54. For VHEIGVEEPSVGASMLFDIREST [V3E] the value was 4.1. For VHDIGVEEPSVGASMLFDIREST [V3D], the protein stability index came to 3.95. For VHKIGVEEPSVGASMLFDIREST [V3K] the value was 3.36. Regarding VHNIGVEEPSVGASMLFDIREST [V3N], the protein stability index came to 3.89.

Turning to VHIIGVEEPSVGASMLFDIREST [V3I], the protein stability index is 1.84. Regarding VHLIGVEEPSVGASMLFDIREST [V3L], the protein stability index came to 1.88. For VHPIGVEEPSVGASMLFDIREST [V3P] the value was 3.49.

As for VHFIGVEEPSVGASMLFDIREST [V3F], the protein stability index came to 1.94. As for VHGIGVEEPSVGASMLFDIREST [V3G], the protein stability index turned out to be 3.42. VHHIGVEEPSVGASMLFDIREST [V3H]: the protein stability index was 3.02.

As for VHQIGVEEPSVGASMLFDIREST [V3Q], the protein stability index stood at 3.87. With VHRIGVEEPSVGASMLFDIREST [V3R], the protein stability index came to 2.81. For VHVKGVEEPSVGASMLFDIREST [I4K] the value was 3.18; for VHVLGVEEPSVGASMLFDIREST [I4L], 2.51. As for VHVYGVEEPSVGASMLFDIREST [I4Y], the protein stability index is 2.16. For VHVSGVEEPSVGASMLFDIREST [I4S] the value was 3.63.

As to VHVDGVEEPSVGASMLFDIREST [I4D], the protein stability index was 3.97.

With VHVNGVEEPSVGASMLFDIREST [I4N], the protein stability index was determined as 3.43. For VHVAGVEEPSVGASMLFDIREST [I4A], the protein stability index was determined as 3.55.

On to VHVVGVEEPSVGASMLFDIREST [I4V], for which the protein stability index came to 2.54. In the case of VHVEGVEEPSVGASMLFDIREST [I4E], the protein stability index is 3.73. For VHVGGVEEPSVGASMLFDIREST [I4G] the value was 3.34.

On to VHVTGVEEPSVGASMLFDIREST [I4T], for which the protein stability index was 3.3. For VHVHGVEEPSVGASMLFDIREST [I4H], the protein stability index amounted to 2.62. The figure for VHVQGVEEPSVGASMLFDIREST [I4Q] is 3.47.

Consider VHVWGVEEPSVGASMLFDIREST [I4W], for which the protein stability index was determined as 1.94. Regarding VHVPGVEEPSVGASMLFDIREST [I4P], the protein stability index was found to be 3.88.

With VHVMGVEEPSVGASMLFDIREST [I4M], the protein stability index turned out to be 2.77. For VHVRGVEEPSVGASMLFDIREST [I4R] the value was 2.9; for VHVFGVEEPSVGASMLFDIREST [I4F], 2.13; for VHVCGVEEPSVGASMLFDIREST [I4C], 2.59.

In the case of VHVIGWEEPSVGASMLFDIREST [V6W], the protein stability index was determined as 1.76. VHVIGCEEPSVGASMLFDIREST [V6C]: the protein stability index came out at 1.96. As for VHVIGPEEPSVGASMLFDIREST [V6P], the protein stability index is 1.82. For VHVIGAEEPSVGASMLFDIREST [V6A] the value was 2.52; for VHVIGHEEPSVGASMLFDIREST [V6H], 2.46.

Take VHVIGDEEPSVGASMLFDIREST [V6D]: the protein stability index was found to be 3.75. For VHVIGTEEPSVGASMLFDIREST [V6T] the value was 2.33; for VHVIGNEEPSVGASMLFDIREST [V6N], 3.61; for VHVIGREEPSVGASMLFDIREST [V6R], 2.35. The figure for VHVIGYEEPSVGASMLFDIREST [V6Y] is 1.9; for VHVIGFEEPSVGASMLFDIREST [V6F] it is 2.27. On to VHVIGSEEPSVGASMLFDIREST [V6S], for which the protein stability index was determined as 2.75. VHVIGEEEPSVGASMLFDIREST [V6E]: the protein stability index was determined as 2.99. The figure for VHVIGGEEPSVGASMLFDIREST [V6G] is 2.54. As to VHVIGLEEPSVGASMLFDIREST [V6L], the protein stability index was 2.25. As for VHVIGQEEPSVGASMLFDIREST [V6Q], the protein stability index was found to be 2.64. The figure for VHVIGIEEPSVGASMLFDIREST [V6I] is 1.75. For VHVIGMEEPSVGASMLFDIREST [V6M], the protein stability index was found to be 1.76.

For VHVIGKEEPSVGASMLFDIREST [V6K], the protein stability index came to 2.61.

Take VHVIGVCEPSVGASMLFDIREST [E7C]: the protein stability index stood at 1.81. The figure for VHVIGVDEPSVGASMLFDIREST [E7D] is 1.86; for VHVIGVVEPSVGASMLFDIREST [E7V] it is 2.84; for VHVIGVPEPSVGASMLFDIREST [E7P] it is 2.2. For VHVIGVREPSVGASMLFDIREST [E7R] the value was 1.33; for VHVIGVLEPSVGASMLFDIREST [E7L], 1.92; for VHVIGVGEPSVGASMLFDIREST [E7G], 1.94. The figure for VHVIGVTEPSVGASMLFDIREST [E7T] is 1.61; for VHVIGVWEPSVGASMLFDIREST [E7W] it is 3.4; for VHVIGVMEPSVGASMLFDIREST [E7M] it is 2.14. In the case of VHVIGVHEPSVGASMLFDIREST [E7H], the protein stability index worked out at 1.15.

For VHVIGVYEPSVGASMLFDIREST [E7Y], the protein stability index worked out at 2.91. For VHVIGVNEPSVGASMLFDIREST [E7N] the value was 1.88; for VHVIGVAEPSVGASMLFDIREST [E7A], 1.69; for VHVIGVQEPSVGASMLFDIREST [E7Q], 1.55. The figure for VHVIGVSEPSVGASMLFDIREST [E7S] is 1.94; for VHVIGVKEPSVGASMLFDIREST [E7K] it is 1.72. The figure for VHVIGVFEPSVGASMLFDIREST [E7F] is 3.54; for VHVIGVIEPSVGASMLFDIREST [E7I] it is 1.7.
